Source: the DeepSol protein solubility set

Assay: soluble on expression in E. coli; label from the status in PepcDB or PDB records

Q: With “MAHHHHHHMGSLSSSSSSSAATGAGAAASQTDAQEVTPVDSLWSPHDVCEAAVDYVLRHVNTVQYMIQSIEEITGKPFLRDRIKCLPAVPRDEASRNPTMGLTPDRVFAGYMWRSARSDCQAKDVVLLEDHIARLFNTKHATAFLKKDKGVNERAASPPTTSDAAATAASSLSTTATQSQLQRLLAGSQLPVLEQVERNIRHELVHAFDDARGAIESSDCVHQACSEIRAARLSGDCFVGQEMRKGRFNFFEGGQKCVRRRAVMAVDRNPVCRGFSERAVDTVFQKCYSDYEPFAAPIYALGSYGDSQFANGTLKL” as the sequence, how does the “soluble on expression in E. coli” value read?
A: not soluble

Q: For “MVFRCHYILVLEGFITQKNRLEHGGKDAGVEPPPYSNAAHHLTPWNDKRAIEAQELLKEFGIHHDSAANGVFLPYKVNEYVTTEVLHIGNHCTDYMKEVTKVLKEVKEYGGTQADAVAALHDIRIRLLDGSLKLNSPK”, which “soluble on expression in E. coli” value is on record?
A: not soluble

Q: With “MARLCTHTESGHYLMALDAGTGSVRAVIFDLQGKQIAVGQAEWQHLAVPDVPGSMEFDLAKNWQLACQCIRQALQKAAIPATAIAAVSACSMREGIVIYDSNGEPIWACANVDARAAHEVSELKELYDNTFEEEVYRCSGQTLALSAIPRLLWLAHHRPDIYHRASTVTMISDWMAFMLSGELAVDPSNAGTTGLLDLVTRNWKRSLLQMAGLRSDILSPVKETGTLLGHISQKAAEQCDLQAGTPVIVGGGDVQLGCLGLGVVRPAQTAVLGGTFWQQVVNLPAPVTDPNMNVRINPHVIPGMVQTESISFFTGLTMRWFRDAFCAEEKLIAERLGIDAYSLLEDMASRVPPGAYGVMPIFSDVMRFKRWYHAAPSFINLSIDPEKCNKATLFRALEENAAIVSACNLQQIAAFSGVQADSLVFAGGGSKGKLWSQILADVTGLTVHVPVVKEATALGCAIAAGVGVGVWPSLAETGEKLVRWDREHKPNPENFAVYQQAREKWQAVYQDQRALVDGGLTTSLWKAPGL” as the sequence, how does the “soluble on expression in E. coli” value read?
A: not soluble

Q: For “MSLEFSDAELARASALQKRLVTLDSHLDTPANLERGDFDVMQGHAGNRLSQVDYPRMLEGALDGGFWAVYTGQGNRSAAAHLDDRDAGLQRLMKIHNLLAAQPQRFALATTPADAARIKAAGKRVVYISMENASPLVADPSLLRFYYAQGLRLMSTVHFLNNEFADSATDPKGAEWKGLSPAGKQLVQQALGIVIDQSHASDAVFDQLIALSPVPIVLSHSGARAVYNHPRNIDDARLKVLAAHGGVIQVNSYGGYLIDSGASPERKAAEKALADQYGGWEHLKMSDGTALSEALKALDARYPVKRATEEDFFAHLEHVLAVAGPAHVGIGMDWDGGGGVVGLEDVSDLPRITAWLLRKGYSEPQIAGIWGGNLLRVMEQAQAYAAGNRESGVGNREGHHHHHH”, which “soluble on expression in E. coli” value is on record?
A: not soluble

Q: Which “soluble on expression in E. coli” value does the source give for “DYLRQVFPHYKVQKITLNAGFTCPNRDGLKGWGGCTYCNNQTFSPAFAMKDRSVSEQLRDGIAFFARKYPHMKYLAYFQAYTNTYGEQAEIIRKYEEALNYYDVVGIIIGTRPDCMPDSLLSYLKDLSERVFVLVEYGVESTLDATLRRVNRGHLWSDSMAAIERTAKTGLPIGVHLILGLPGESREDILRHADKISALPVTTLKLHQLQIIRGTAMAKEYAESPSD” here?
A: not soluble

Q: Which “soluble on expression in E. coli” value does the source give for “RKRNRIPLRCTICRKRKVKCDKLRPHCQQCTKTGVAHLCHYMEQTWAEEAEKELLKDNELKKLRERVKSLEKTLSKVHSSP” here?
A: soluble

Q: For “MTDLIHRPRRLRKSAALRAMFEETTLSLNDLVLPIFVEEELDDYKAIDAMPGVMRIPEKQLAREIERIANAGIRSVMTFGISHHTDDTGSDTWKEDGLVARMSRICKQTVPEMIVMSDTCFCEYTSHGHCGVLCEHGVDNDATLANLGKQAVIAAAAGADFIAPSAAMDGQVQAIRQALDAAGFTDTAIMSYSTKFASSFYGPFREAAGTALKGDRKTYQMNPMNRREAIRESLLDEAQGADCLMVKPAGAYLDVLREIRERTELPLGAYQVSGEYAMIKFAAMAGAIDEEKVVLESLGSIKRAGADLIFSYFALDLAEKNILR”, which “soluble on expression in E. coli” value is on record?
A: not soluble

Q: Which “soluble on expression in E. coli” value does the source give for “MGSDKIHHHHHHMDRSERLIQLISEEGIDAFLIMNIENSARASSVYFSGFTGSFSIILISENTRLLITDSRYTVQAKQETDFEVREVKGGDFIDVLKKTVNDLKIKTIALEEERVSLSLFRRISSAFGDRKFIGIDDEVKQMRMVKDEGEIEKIKQAIEISERAFLETVQQIRAGMTEKEIAALLEYTMRKEGAEGVAFDTIVASGCRSALPHGKASDKVVERGDVIVIDFGATYENYCADITRVVSIGEPSDEVKEVHSIVLEAQERALKIAKAGVTGKLLDSVAREFIREKGYGEFFGHSLGHGIGLEVHEGPAISFRNDSPLPENVVFTVEPGIYLEGKFGIRIEEDVVLKEQGCEILTTLPRSIFVV” here?
A: not soluble

Q: Which “soluble on expression in E. coli” value does the source give for “MPTAADNHWSMPPNPEKALMLAQRAVAVFVYDAVRLEGINFTLPEVQTLLQGVTVGGHRLSDQQIAVNQGEAWKLLFQMIRDGRFELTPDCAMALHGVAAKEEALEWGCFRSGSVLIAGTEYEPPAASELPTRFDRMIDELQHMDDVHDQAVHLFLTMARCQFFYDVNKRMGRFMMNGHLLSNGYPAINIPASSQLEFNELMLRFYDSGDQREMNAFVRSCMDERVVLIMKEELEHHHHHH” here?
A: soluble

Q: For “MEWLNEPPNWSHSDQKIIVTTSPKTDFWRITHYGFIRDSGHFYFDRVSTDFVVDVKIKGNYKDLYDQAGIMIRADEQHWIKTGIEYVDGVQNLSAVVTHNYSDWSFTPLLNPPNIFQVRVERCQEAIHIAYLDEYSRYVPFRMAYFPVALDIQVGIMCASPQGNGYEVIFEDYQLTKKGEKLSLEHHHHHH”, which “soluble on expression in E. coli” value is on record?
A: not soluble

Q: For “MMNSIKFIFLGDVYGKAGRNIIKNNLAQLKSKYQADLVIVNAENTTHGKGLSLKHYEFLKEAGVNYITMGNHTWFQKLDLAVVINKKDLVRPLNLDTSFAFHNLGQGSLVFEFNKAKIRITNLLGTSVPLPFKTTNPFKVLKELILKRDCDLHIVDFHAETTSEKNAFCMAFDGYVTTIFGTHTHVPSADLRITPKGSAYITDVGMCGPGFGSVIGANPEQSIRLFCAGSREHFEVSKCGAQLNGVFFEVDVNTKKVIKTEAIRIVEDDPRYLKQDYFNLI”, which “soluble on expression in E. coli” value is on record?
A: soluble

Q: With “MGSDKIHHHHHHMNKLKIGTSGWVYKHWMDIFYPPNLPSDQQLSFYAQHFATVEINFSFYRLPERSVFETWHKQTPSNFLFAVKGSRYLTHMKKLKDPIEPLSRIMERASGLQEKLGPILFQFPHTWHINIERLQPFLELLQTYPKQKFTVEFRHSSWLIPQVYQLLETAGVGLCLPVSPTVPLDICLTAPWTYIRMHSGQWNVGYTDEELSTWVERIRSFLMQEIDVYVYFNNDPDGNAIRDAQRLYCLLGSC” as the sequence, how does the “soluble on expression in E. coli” value read?
A: not soluble

Q: With “MAHHHHHHMRRFCTARVSSYVKRAPLLLPRGGRRWRSGAGTTADGGGEKEYIADSFESTAGSNAYAAMELAAEARREIHELWLSAETALEREKRVQQVAALIEKYKLDPSTPREADVSRGLGDAFDRLLLLCLPLGKTDAKGTDNLERLMHLAGRNGRELSVRTIQHLFARTDSFAEALAVFYTMRRCHVAMNMEAYYSMLYSLQRLEEEGWGQHFRNEYEENGAPSEQAMDFIVKGISNALLPENKPWLGRVMFQDRNVPDRRYDTRDFDELDTAWTQRYKSGTPAGAH” as the sequence, how does the “soluble on expression in E. coli” value read?
A: not soluble

Q: Which “soluble on expression in E. coli” value does the source give for “MSLFIDAHNHLDFFEEQEKLNKALDIIKNDNIITLGCSMDTKSYKFTKSLALKNKNIIPCFGIHPSRAHENFKNLECFDEYIRESKIIGEIGLDYVWVKEKEKYPHMKRVFTYFLEEAKKYNKITNIHTKGAESEIYNYIKKYELKTPIIHWYSGDKDTLKKLLDYGCYFTISVDIGYSKLSKEIVQLLPIDKILTETDGPTSLEWVNGDYGYPNVIKNVVKEISKIKNIQEEEVKGVIENNFKTLIRKEGITLEGHHHHHH” here?
A: soluble

Q: Which “soluble on expression in E. coli” value does the source give for “MKLMAQLGKLLKEQKYDRQLRLWGDHGQEALESAHVCLINATATGTEILKNLVLPGIGSFTIIDGNQVSGEDAGNNFFLQRSSIGKNRAEAAMEFLQELNSDVSGSFVEESPENLLDNDPSFFCRFTVVVATQLPESTSLRLADVLWNSQIPLLICRTYGLVGYMRIIIKEHPVIESHPDNALEDLRLDKPFPELREHFQSYDLDHMEKKDHSHTPWIVIIAKYLAQWYSETNGRIPKTYKEKEDFRDLIRQGILKNENGAPEDEENFEEAIKNVNTALNTTQIPSSIEDIFNDDRCINITKQTPSFWILARALKEFVAKEGQGNLPVRGTIPDMIADSGKYIKLQNVYREKAKKDAAAVGNHVAKLLQSIGQAPESISEKELKLLCSNSAFLRVVRCRSLAEEYGLDTINKDEIISSMDNPDNEIVLYLMLRAVDRFHKQQGRYPGVSNYQVEEDIGKLKSCLTGFLQEYGLSVMVKDDYVHEFCRYGAAEPHTIAAFLGGAAAQEVIKIITKQFVIFNNTYIYSGMSQTSATFQL” here?
A: soluble

Q: With “MYLINQNGWIEVICGSMFSGKSEELIRRVRRTQFAKQHAIVFKPCIDNRYSEEDVVSHNGLKVKAVPVSASKDIFEHITEELDVIAIDEVQFFDGDIVEVVQVLANRGYRVIVAGLDQDFRGLPFGQVPQLMAIAEHVTKLQAVCSVCGSPASRTQRLIDGEPAAFDDPIILVGASESYEPRCRHCHAVPANKDK” as the sequence, how does the “soluble on expression in E. coli” value read?
A: not soluble

Q: Which “soluble on expression in E. coli” value does the source give for “MTNIIKIRASVFIPMSWTEAKMDMETGQVIQFEGDSREFTPHAVNTMRSRVEQEVVVDFYKQEVFSYANTGITTEKVISPDGSVNKRTGKASTENIVCTDIVWNSGGVQFKMSASASNPLNVYAPPVDYVLNVCVKKDGSIDVQGEHDGFPCFEFYKQVDFGPFEKIYTHDFRETGDTAAALGGNMDYSFTKRL” here?
A: soluble

Q: With “MGDVVEMTSELGFKYSILASGSTGNSFYLETPEKKILVDAGLSGKKITSLLAEIDRDPSDLDAILVTHEHKDHIHGVGVLARKYGMDIYANEKTWQIMDSKNMLGKVDNSQKHIFSRGKLLTFGDIDIESFGVSHDAINPQFYRFMKDGKSFVMLTDTGYVSDRMAGLIENADGYLIESNHDIEILRAGSYPWSTKQRILSDQGHLCNEDGADAMIRTIGNKTKKIYLGHLSKENNIKELAYMTMENQLARADFGVGTDFKIFVTSPDTATPLTDILEHHHHHH” as the sequence, how does the “soluble on expression in E. coli” value read?
A: not soluble

Q: For “MASYTLRQLKYFVTTVECGSVAEASRKLYIAQPSISTAVKGLEESFGVQLFIRHHAQGVSLTPAGARFYRKAQELLRMAHEFEQNALADNDVIAGQIDIGCFETVAPLYLPGLIAGFRQAYPGVEIRIRDGEQQELVQGLTSGRFDLAFLYEHDLDSTIETEPLMPPQRPHALLPEGHRFAGQAQVSLRDLCLEPMILLDVQPSRTYFVSLFEELGLTPNIAFSSPSIEMVRGMVGQGFGFSLLVTRPHSECTYDGKKVVMVDLAEPVSTSGLAAAWLKRAQLTKPARLFVDYCREQLGKLAERRH”, which “soluble on expression in E. coli” value is on record?
A: soluble

Q: With “MGSDKIHHHHHHMYKWHNVFQPIFQIDQNMNHKVDHYEMLLRDENDQFPNHDFFRIISTEEDNQKWIQIEEKSLKNLFSLHPNIHVNLNVEPIQFAYPSVWEFLRRIYDKYGQKVIIEITERQLQAGNIGNRQFDCAFQRINDIGFKIALDDVDSGSNSFSFVNHHVNQISVIKLSLLIFDNVSSGTTISFIDSWAAFAKEKHLDLVIEAVRSKEIAKRFAGNKHIFQQGYYWEKALKLEDIY” as the sequence, how does the “soluble on expression in E. coli” value read?
A: not soluble

Q: For “MEVKKVLVSAFLLTTCLMSGQAQRRNEIQVPDLDGYTTLKCDFHMHSVFSDGLVWPTVRVDEAYRDGLDAISLTEHIEYRPHKQDVVSDHNRSFDLCREQAEKLGILLIKGSEITRAMAPGHFNAIFLSDSNPLEQKDYKDAFREAKKQGAFMFWNHPGWDSQQPDTTKWWPEHTALYQEGCMHGIEVANGHLYMPEAIQWCLDKNLTMIGTSDIHQPIQTDYDFEKGEHRTMTFVFAKERSLQGIREALDNRRTAAYFHELLIGREDLLRPFFEKCVKIEEVSRNEQGVTLSITNVTDLVLKLKKTAHDTLLVYFRDMTLKPHTRYTVRIGFKQGIKGGDVNFEVTNFIVAPDKGLKYTISL”, which “soluble on expression in E. coli” value is on record?
A: not soluble
